Consider 35 molecules from paper PMC10786891, “Massively parallel profiling of RNA-targeting CRISPR-Cas13d”.

Substitutions are numbered along the chain they refer to. Names may count otherwise.

T1: EsCas13d, nuclease-dead (Eubacterium siraeum, UniProt B0MS50, R295A;H300A;R849A;H854A)
T1 sequence: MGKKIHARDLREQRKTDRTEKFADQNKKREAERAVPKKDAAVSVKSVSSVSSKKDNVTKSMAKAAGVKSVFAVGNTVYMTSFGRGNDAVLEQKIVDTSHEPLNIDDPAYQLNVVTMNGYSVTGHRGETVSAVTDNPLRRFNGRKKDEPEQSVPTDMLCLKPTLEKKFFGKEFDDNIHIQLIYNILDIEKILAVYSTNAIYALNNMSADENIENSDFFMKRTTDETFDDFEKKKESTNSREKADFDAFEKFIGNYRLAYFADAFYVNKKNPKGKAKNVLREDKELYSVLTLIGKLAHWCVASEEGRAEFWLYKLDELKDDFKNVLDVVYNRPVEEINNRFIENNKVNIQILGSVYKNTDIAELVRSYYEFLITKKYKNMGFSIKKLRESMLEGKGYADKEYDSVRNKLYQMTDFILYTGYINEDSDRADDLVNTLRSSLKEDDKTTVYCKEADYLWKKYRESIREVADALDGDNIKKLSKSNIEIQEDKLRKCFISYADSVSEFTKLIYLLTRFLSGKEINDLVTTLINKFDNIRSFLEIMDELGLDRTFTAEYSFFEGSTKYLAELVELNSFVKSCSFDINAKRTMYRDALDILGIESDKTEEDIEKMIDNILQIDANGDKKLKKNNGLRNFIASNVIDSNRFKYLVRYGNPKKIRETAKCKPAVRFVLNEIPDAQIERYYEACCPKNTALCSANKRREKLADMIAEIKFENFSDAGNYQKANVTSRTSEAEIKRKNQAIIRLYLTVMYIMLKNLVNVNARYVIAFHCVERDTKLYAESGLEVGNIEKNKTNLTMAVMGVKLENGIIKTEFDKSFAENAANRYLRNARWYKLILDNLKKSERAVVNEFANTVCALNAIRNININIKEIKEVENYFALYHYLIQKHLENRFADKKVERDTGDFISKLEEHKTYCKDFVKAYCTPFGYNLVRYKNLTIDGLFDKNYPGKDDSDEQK

B1: target 1 G12A,A14U (mixed)
RNA 1: CACCCGUGCAAAAAUGCAGGGGUCUAAAACUGAGCGGAUAACCUCUCUAUGG
RNA 2: GGGAAUGGAUCCACAUCUACGAAUUCGUACCAUAGAGUGAUUAUCCGCUCACCGAGAUCGGAAGAGCACACGU
B2: target 1 C6U,C21A (mixed)
RNA 1: B1 RNA 1
RNA 2: B1 RNA 2 with C31A, U38A, A40G, C46U
B3: target 1 insC 3' of 12,insA 3' of 10 (mixed)
RNA 1: B1 RNA 1
RNA 2: GGGAAUGGAUCCACAUCUACGAAUUCGUACCAUAGAGAGGCUUAAUCCGCUCACCGAGAUCGGAAGAGCACACGU
B4: target 1 insG 3' of 18,insA 3' of 5 (mixed)
RNA 1: B1 RNA 1
RNA 2: B3 RNA 2 with A36G, G37A, A38G, G39A, C41G, A45U, U46C, C48G, G49A
B5: target 2 MT 5'PFS GAA 3'PFS ACU (mixed)
RNA 1: CACCCGUGCAAAAUUGCAGGGGUCUAAAACCUUCUCCAAAUUGUUUCAUCCU
RNA 2: GGGAAUGGAUCCACAUCUACGAAUUCGAAAGGAUGAAACAAUUUGGAGAAGACUAGAUCGGAAGAGCACACGU
B6: target 2 MT 5'PFS UGG 3'PFS CUA (mixed)
RNA 1: B5 RNA 1
RNA 2: B5 RNA 2 with G27U, A28G, A29G, A52C, C53U, U54A
B7: target 2 MT 5'PFS AGG 3'PFS CAA (mixed)
RNA 1: B5 RNA 1
RNA 2: B5 RNA 2 with G27A, A28G, A29G, A52C, C53A, U54A
B8: target 2 MT 5'PFS CAC 3'PFS UUA (mixed)
RNA 1: B5 RNA 1
RNA 2: B5 RNA 2 with G27C, A29C, A52U, C53U, U54A
B9: target 2 MT 5'PFS UGA 3'PFS CGC (mixed)
RNA 1: B5 RNA 1
RNA 2: B5 RNA 2 with G27U, A28G, A52C, C53G, U54C
B10: target 2 MT 5'PFS UGC 3'PFS UAA (mixed)
RNA 1: B5 RNA 1
RNA 2: B5 RNA 2 with G27U, A28G, A29C, A52U, C53A, U54A
B11: target 2 MT 5'PFS UGC 3'PFS CAA (mixed)
RNA 1: B5 RNA 1
RNA 2: B5 RNA 2 with G27U, A28G, A29C, A52C, C53A, U54A
B12: target 2 MT 5'PFS UGC 3'PFS CAG (mixed)
RNA 1: B5 RNA 1
RNA 2: B5 RNA 2 with G27U, A28G, A29C, A52C, C53A, U54G
B13: target 2 MT 5'PFS UGC 3'PFS CAU (mixed)
RNA 1: B5 RNA 1
RNA 2: B5 RNA 2 with G27U, A28G, A29C, A52C, C53A
B14: target 2 MT 5'PFS UAU 3'PFS UAC (mixed)
RNA 1: B5 RNA 1
RNA 2: B5 RNA 2 with G27U, A29U, A52U, C53A, U54C
B15: target 2 MT 5'PFS CAC 3'PFS UUC (mixed)
RNA 1: B5 RNA 1
RNA 2: B5 RNA 2 with G27C, A29C, A52U, C53U, U54C
B16: target 2 MT 5'PFS CGC 3'PFS UGU (mixed)
RNA 1: B5 RNA 1
RNA 2: B5 RNA 2 with G27C, A28G, A29C, A52U, C53G
B17: target 2 MT 5'PFS UUA 3'PFS ACC (mixed)
RNA 1: B5 RNA 1
RNA 2: B5 RNA 2 with G27U, A28U, U54C
B18: target 2 MT 5'PFS CGC 3'PFS UAG (mixed)
RNA 1: B5 RNA 1
RNA 2: B5 RNA 2 with G27C, A28G, A29C, A52U, C53A, U54G
B19: target 2 MT 5'PFS GAG 3'PFS AGG (mixed)
RNA 1: B5 RNA 1
RNA 2: B5 RNA 2 with A29G, C53G, U54G
B20: target 2 MT 5'PFS GGG 3'PFS UGC (mixed)
RNA 1: B5 RNA 1
RNA 2: B5 RNA 2 with A28G, A29G, A52U, C53G, U54C
B21: target 2 MT 5'PFS UAU 3'PFS UAA (mixed)
RNA 1: B5 RNA 1
RNA 2: B5 RNA 2 with G27U, A29U, A52U, C53A, U54A
B22: target 2 MT 5'PFS UGC 3'PFS UAC (mixed)
RNA 1: B5 RNA 1
RNA 2: B5 RNA 2 with G27U, A28G, A29C, A52U, C53A, U54C
B23: target 2 MT 5'PFS GUA 3'PFS CAA (mixed)
RNA 1: B5 RNA 1
RNA 2: B5 RNA 2 with A28U, A52C, C53A, U54A
B24: target 2 MT 5'PFS AAA 3'PFS CUG (mixed)
RNA 1: B5 RNA 1
RNA 2: B5 RNA 2 with G27A, A52C, C53U, U54G
B25: target 2 MT 5'PFS UGA 3'PFS CGA (mixed)
RNA 1: B5 RNA 1
RNA 2: B5 RNA 2 with G27U, A28G, A52C, C53G, U54A
B26: target 2 MT 5'PFS UGG 3'PFS CUU (mixed)
RNA 1: B5 RNA 1
RNA 2: B5 RNA 2 with G27U, A28G, A29G, A52C, C53U
B27: target 2 MT 5'PFS UAC 3'PFS UCA (mixed)
RNA 1: B5 RNA 1
RNA 2: B5 RNA 2 with G27U, A29C, A52U, U54A
B28: target 2 MT 5'PFS UAC 3'PFS UCC (mixed)
RNA 1: B5 RNA 1
RNA 2: B5 RNA 2 with G27U, A29C, A52U, U54C
B29: target 2 MT 5'PFS GAU 3'PFS CCG (mixed)
RNA 1: B5 RNA 1
RNA 2: B5 RNA 2 with A29U, A52C, U54G
B30: target 2 MT 5'PFS GGG 3'PFS UGU (mixed)
RNA 1: B5 RNA 1
RNA 2: B5 RNA 2 with A28G, A29G, A52U, C53G
B31: target 2 MT 5'PFS GUA 3'PFS CAC (mixed)
RNA 1: B5 RNA 1
RNA 2: B5 RNA 2 with A28U, A52C, C53A, U54C
B32: target 2 MT 5'PFS UUA 3'PFS ACG (mixed)
RNA 1: B5 RNA 1
RNA 2: B5 RNA 2 with G27U, A28U, U54G
B33: target 2 MT 5'PFS UUA 3'PFS ACA (mixed)
RNA 1: B5 RNA 1
RNA 2: B5 RNA 2 with G27U, A28U, U54A
B34: target 2 MT 5'PFS UGC 3'PFS UAU (mixed)
RNA 1: B5 RNA 1
RNA 2: B5 RNA 2 with G27U, A28G, A29C, A52U, C53A
B35: target 2 MT 5'PFS CAC 3'PFS UUG (mixed)
RNA 1: B5 RNA 1
RNA 2: B5 RNA 2 with G27C, A29C, A52U, C53U, U54G

This series concerns the target T1, EsCas13d, nuclease-dead. The series can be described thus: crRNA (strand 1, pre-loaded); Mg2+; 40 mM Tris-HCl pH 7.5, 150 mM NaCl, 6 mM MgCl2, 1 mM DTT, 0.1% Tween-20, 0.2 mg/ml BSA; 25 C; 10 min per concentration, then washed. As to conditions: tags: His6-TwinStrep-SUMO cleaved; N-terminal SNAP kept (SNAP-Surface 488); label: 3' end held by stalled T7 RNA polymerase.
B1 yielded an equilibrium dissociation constant (Kd) of 26.3 ± 1.7 nM.

On to B2, for which the Kd came to 26.2 ± 1.6 nM.

With B3, the equilibrium dissociation constant (Kd) turned out to be 11.7 ± 1 nM.

B4 gave a Kd of 36 ± 4 nM.

B5 yielded a Kd of 13.3 ± 2.6 nM.

With B6, the Kd was 7 ± 1.3 nM.

Consider B7, for which binding was put at a Kd of 4.1 ± 0.7 nM.

Consider B8, for which the affinity, expressed as Kd, was 4.4 ± 0.8 nM.

B9 came in with a dissociation constant (Kd) of 8.5 ± 1.1 nM.

Regarding B10, the Kd came out at 17 ± 6 nM.

With B11, binding was characterised by a dissociation constant (Kd) of 13 ± 2.3 nM.

The molecule B12 showed a dissociation constant Kd of 16.2 ± 2.2 nM.

In turn, B13 yielded a Kd of 25 ± 8 nM.

B14 showed a Kd of 26 ± 6 nM.

The molecule B15 displayed a Kd of 5.2 ± 1.2 nM.

With B16, binding was put at a Kd of 5.6 ± 0.5 nM.

Take B17: the Kd stood at 45 ± 14 nM.

B18 showed a Kd of 3.3 ± 0.5 nM.

B19: the Kd came to 5.5 ± 0.4 nM.

In turn, B20 showed a dissociation constant (Kd) of 12.8 ± 1.4 nM.

With B21, the Kd was 18.1 ± 3 nM.

In turn, B22 gave a Kd of 21 ± 4 nM.

Molecule B23 had a Kd of 4.8 ± 0.5 nM.

Molecule B24 came in with a Kd of 5.5 ± 1.1 nM.

Turning to B25, the affinity, expressed as Kd, was 7.2 ± 0.8 nM.

B26 showed a Kd of 7 ± 0.7 nM.

In the case of B27, binding was characterised by a dissociation constant (Kd) of 6.3 ± 1 nM.

Regarding B28, binding was put at a Kd of 15.1 ± 2.8 nM.

Take B29: binding was put at a Kd of 14.2 ± 1.4 nM.

Molecule B30 had a Kd of 12.2 ± 0.8 nM.

B31 yielded a Kd of 9.6 ± 1.2 nM.

B32 gave a Kd of 81 ± 19 nM.

In turn, B33 came in with a Kd of 37 ± 7 nM.

The molecule B34 returned a Kd of 14.3 ± 2.6 nM.

B35: the Kd was 2.8 ± 0.5 nM.
